Patent US20240352438A1, “MEANS AND METHODS FOR DETOXIFYING OCHRATOXIN A” (DSM Austria GmbH, priority 2021, published 2024)
Residue numbers refer to the chain shown, from its start.

B1: 203 (protein)
chain: MTTRTRILTAFLSLLAANACAADAAPAAPHTVVLRAARMFDGASGKLVDHPQLTIVGNKIVRIAQGDKAEVPAGAEVVDLGDATLLPGFIDAHVHLSGQSSDNWYGDFFDNMMRFPAEQALYGAYYARITLEAGFTSVRDVGSTDWVALGLRNAIDAGKVPGPRMLVSNYAVGSTGGHADQDPIPPHKLPLAGPLQGVCNGPEECRAAVRYQIKYGANVIKFMPSGGVLSLSDPVDAPELSQDEMNAVIGESHAWGRKVAAHAHGDKAAKMAVAAGVDSIEHGSFIEDDTLRAMKAKNVYLVPTISAIAHVEEKIGTFPPVMAEKGRAAAAHLRQTFRHAVQIGVPIALGTDAGVGAHGSNAREFRYMVENGLTPAQALLAGTANAARLLGTFDRVGTLEAGKLADVVAVPGNPIADITVTERPLFVMKDGVVVRRDAVR
modifications: exemplary polypeptide
B2: 218 (protein)
chain: B1 chain with H187D, M322I
modifications: exemplary polypeptide
B3: 235 (protein)
chain: B1 chain with H253N, M322I
modifications: exemplary polypeptide
B4: 219 (protein)
chain: B1 chain with H187E, M322I
modifications: exemplary polypeptide
B5: 240 (protein)
chain: B1 chain with H310E, M322I
modifications: exemplary polypeptide
B6: 216 (protein)
chain: B1 chain with N103Q, M322I
modifications: exemplary polypeptide
B7: 217 (protein)
chain: B1 chain with T130E, M322I
modifications: exemplary polypeptide
B8: 234 (protein)
chain: B1 chain with H253A, M322I
modifications: exemplary polypeptide
B9: 210 (protein)
chain: B1 chain with H50D, M322I
modifications: exemplary polypeptide
B10: 209 (protein)
chain: B1 chain with H30R, M322I
modifications: exemplary polypeptide
B11: 225 (protein)
chain: B1 chain with G226A, M322I
modifications: exemplary polypeptide
B12: 239 (protein)
chain: B1 chain with H310D, M322I
modifications: exemplary polypeptide
B13: 231 (protein)
chain: B1 chain with D233N, M322I
modifications: exemplary polypeptide
B14: 211 (protein)
chain: B1 chain with H50N, M322I
modifications: exemplary polypeptide
B15: 214 (protein)
chain: B1 chain with N103D, M322I
modifications: exemplary polypeptide
B16: 238 (protein)
chain: B1 chain with S284T, M322I
modifications: exemplary polypeptide
B17: 208 (protein)
chain: B1 chain with H30P, M322I
modifications: exemplary polypeptide
B18: 224 (protein)
chain: B1 chain with K188R, M322I
modifications: exemplary polypeptide
B19: 237 (protein)
chain: B1 chain with S284H, M322I
modifications: exemplary polypeptide
B20: 230 (protein)
chain: B1 chain with S230T, M322I
modifications: exemplary polypeptide
B21: 206 (protein)
chain: B1 chain with H30E, M322I
modifications: exemplary polypeptide
B22: 220 (protein)
chain: B1 chain with H187G, M322I
modifications: exemplary polypeptide
B23: 207 (protein)
chain: B1 chain with H30K, M322I
modifications: exemplary polypeptide
B24: 213 (protein)
chain: B1 chain with S100D, M322I
modifications: exemplary polypeptide
B25: 227 (protein)
chain: B1 chain with G226S, M322I
modifications: exemplary polypeptide

Assay: OTA detoxification activity assay (specific activity, fluorescence reduction ex/em 390/450 nm)
Format: biochemical
Settings: pH 6.0; SEQ ID NO: 1 = 100%
Outline: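 Recombinant enzyme preparation with 200 ng/mL OTA in 100 mM sodium phosphate, at pH 6.0 and pH 7.5, 37° C. Degradation followed as the fall in fluorescence at ex/em 390/450 nm. Specific activity taken from the initial linear slope; one unit degrades 1 μmol OTA per min at a starting OTA of […].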

Molecule | Specific OTA detoxification activities in % compared to the enzyme of SEQ ID NO: 1, pH 6.0
B1 | 100%
B2 | 104%
B3 | 56%
B4 | 87%
B5 | 86%
B6 | 147%
B7 | 153%
B8 | 23%
B9 | 93%
B10 | 143%
B11 | 24%
B12 | 73%
B13 | 20%
B14 | 121%
B15 | 123%
B16 | 151%
B17 | 135%
B18 | 169%
B19 | 49%
B20 | 141%
B21 | 168%
B22 | 85%
B23 | 87%
B24 | 76%
B25 | 47%

Same assay, conditions: pH 7.5; SEQ ID NO: 1 = 100%

Molecule | Specific OTA detoxification activities in % compared to the enzyme of SEQ ID NO: 1, pH 7.5
B1 | 70%
B2 | 101%
B3 | 38%
B4 | 88%
B5 | 101%
B6 | 115%
B7 | 139%
B8 | 13%
B9 | 102%
B10 | 88%
B11 | 27%
B12 | 76%
B13 | 22%
B14 | 111%
B15 | 108%
B16 | 97%
B17 | 108%
B18 | 132%
B19 | 26%
B20 | 127%
B21 | 112%
B22 | 83%
B23 | 72%
B24 | 39%
B25 | 36%

Assay: Enzymatic activity comparison: activity remaining after 65° C. for 10 min at pH 6.0, relative to SEQ ID NO: 1
Format: physicochemical
Settings: not given
Procedure: To compare the temperature behavior and thermostability of selected enzymes to one another, enzyme was incubated at 65° C. for 10 min at pH 6.0. The enzymatic activity remaining after incubation was compared to the remaining activity of the enzyme of SEQ ID NO: 1 after incubation, the latter being set to 100%, see Table 16.

Molecule | Enzymatic activity remaining after incubation, compared to SEQ ID NO: 1 (set to 100%)
B1 | 10%
B2 | 28%
B3 | 56%
B4 | 38%
B5 | 44%
B6 | 14%
B7 | 36%
B8 | 50%
B9 | 39%
B10 | 31%
B11 | 84%
B12 | 30%
B13 | 75%
B14 | 34%
B15 | 59%
B16 | 24%
B17 | 35%
B18 | 40%
B19 | 14%
B20 | 32%
B21 | 42%
B22 | 22%
B23 | 37%
B24 | 25%
B25 | 24%
